The target in test [1] is T1, post-fusion F protein from RSV strain 18537 B (human respiratory syncytial virus …, UniProt P13843 26-109; P13843 147-513).
T1 construct: also called RSV 18537 B; RSV 18537 B post-fusion F
Kind of test: ELISA on coated antigen.

The target in test [2] is T2, recombinant post-fusion RSV strain A2 F protein (human respiratory syncytial virus …, UniProt P03420 26-109; P03420 147-513).
T2 construct: Viral fusion glycoprotein, trimer of protomers (each cleaved into two disulfide-linked fragments); also called RSV A2; post-fusion RSV A2 F
Kind of test: ELISA on coated antigen.

Test [3] concerns the target F protein on infectious RSV strain A2 (human respiratory syncytial virus …, UniProt P03420 26-574). Kind of test: cell-based or functional assay.
Target sequence in this assay (P03420 26-574): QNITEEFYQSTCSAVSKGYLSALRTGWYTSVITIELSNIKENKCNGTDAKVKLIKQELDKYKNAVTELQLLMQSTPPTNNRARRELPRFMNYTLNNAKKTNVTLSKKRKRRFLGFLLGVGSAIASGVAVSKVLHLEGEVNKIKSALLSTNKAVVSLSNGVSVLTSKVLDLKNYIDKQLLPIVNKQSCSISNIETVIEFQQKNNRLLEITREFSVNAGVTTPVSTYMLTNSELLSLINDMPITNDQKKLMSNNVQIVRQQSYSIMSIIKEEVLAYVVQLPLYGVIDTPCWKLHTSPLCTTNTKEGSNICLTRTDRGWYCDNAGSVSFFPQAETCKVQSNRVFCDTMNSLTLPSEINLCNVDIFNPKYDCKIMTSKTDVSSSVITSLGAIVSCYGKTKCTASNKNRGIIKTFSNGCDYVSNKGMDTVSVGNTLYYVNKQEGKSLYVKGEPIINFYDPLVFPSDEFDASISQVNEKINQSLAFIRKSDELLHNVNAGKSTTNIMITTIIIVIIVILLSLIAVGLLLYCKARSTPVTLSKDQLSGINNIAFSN
Test [4] has the same target. As to the kind of experiment: cell-based or functional assay. The source holds these as a separate data set.
Target sequence in this assay (P03420 26-574): as above

The results in this text go back to US20190240316A1 (VANDERBILT UNIVERSITY, published 2019).

T2 sequence (P03420 147-513, one chain of several): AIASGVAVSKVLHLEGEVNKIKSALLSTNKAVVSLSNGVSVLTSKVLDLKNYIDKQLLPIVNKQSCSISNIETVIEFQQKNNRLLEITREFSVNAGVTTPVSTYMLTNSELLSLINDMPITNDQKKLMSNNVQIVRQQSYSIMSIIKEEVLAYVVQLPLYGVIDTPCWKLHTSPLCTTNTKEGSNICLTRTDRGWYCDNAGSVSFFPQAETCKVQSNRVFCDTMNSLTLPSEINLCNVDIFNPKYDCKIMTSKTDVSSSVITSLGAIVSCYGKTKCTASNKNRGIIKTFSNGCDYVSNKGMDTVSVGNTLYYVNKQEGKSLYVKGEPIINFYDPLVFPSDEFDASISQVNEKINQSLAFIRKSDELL
T1 sequence (P13843 26-109, chain 1 of 2): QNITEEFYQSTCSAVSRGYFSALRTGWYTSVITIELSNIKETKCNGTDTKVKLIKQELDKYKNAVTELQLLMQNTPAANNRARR
T1 sequence (P13843 147-513, chain 2 of 2): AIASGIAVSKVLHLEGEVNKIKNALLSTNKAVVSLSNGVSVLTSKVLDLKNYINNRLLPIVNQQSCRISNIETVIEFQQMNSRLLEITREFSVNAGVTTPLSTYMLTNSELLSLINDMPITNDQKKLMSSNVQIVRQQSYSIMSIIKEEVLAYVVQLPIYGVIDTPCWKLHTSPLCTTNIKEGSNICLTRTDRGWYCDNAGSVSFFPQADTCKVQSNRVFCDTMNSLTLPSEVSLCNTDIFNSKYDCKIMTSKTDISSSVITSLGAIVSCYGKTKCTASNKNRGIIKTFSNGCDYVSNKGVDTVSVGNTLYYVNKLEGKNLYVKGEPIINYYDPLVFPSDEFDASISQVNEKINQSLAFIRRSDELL

B1: mAb 4B6 (antibody, V domains shown)
VH: QVQLVQSGGGLAQPGRSLRLSCRASGFTFGDFNMNWFRQAPGKGLEWVGFIRRKAFGGATEYAASVKGRLTISRDDSKSIAYLQMNSLKTEDTAVYYCTRERGYVGSGGPFFDYWGQGTLVTVSS
VL: QAVVTQPPSVSGAPGQRVTISCTGSSSNIGAGYDVHWYQQLPGTAPKLLIYGDSNRPSGVPDRFSGSSSGTSASLAITGLQAEDEADYYCQSYDNSLSGSVFGTGTKVTVL
As to B1, the half-maximal effective concentration (EC50) in test [1] and in test [2] was 0.024 µg/mL in each case. In addition, the “Neutralization (IC50; ng/mL) RSV A2, plaque-reduction assay” value (“Neutralization … plaque-reduction assay” for short) in test [3] is more than 100000 ng/mL.

B2: mAb 10F13 (antibody, V domains shown)
VH: QVQLVQSGGGVVQPGRSLRLSCAASGFPFRIYSMHWVRQAPGKGLEWVALISYDGTNKQYADSVNGRFTISRDNSENTMYLQMNSLRPEDTAIYYCATDIVELVTATDYWGQGTLVTVSS
VL: AVVTQSPGTLSLSPGDRATLSCRASQSVSTSLGWYQQKPGQSPRLLIYGTSRRATGVPDRFSGSGSETDFTLTISRLEPEDFSVYYCQQYGSSPYTFGQGTRLEIK
notes: The printed light chain has an unusual N-terminal part
B2: the EC50 in test [1] worked out at 0.021 µg/mL; in test [2], 0.017 µg/mL.

B3: mAb D25 (antibody, V domains shown)
VH: QVQLVQSGAEVKKPGSSVMVSCQASGGPLRNYIINWLRQAPGQGPEWMGGIIPVLGTVHYAPKFQGRVTITADESTDTAYIHLISLRSEDTAMYYCATETALVVSTTYLPHYFDNWGQGTLVTVSS
VL: DIQMTQSPSSLSAAVGDRVTITCQASQDIVNYLNWYQQKPGKAPKLLIYVASNLETGVPSRFSGSGSGTDFSLTISSLQPEDVATYYCQQYDNLPLTFGGGTKVEIKR
In the case of B3, in test [4], the “Neutralization … plaque-reduction assay” value was 21 ng/mL.

B4: motavizumab (antibody, V domains shown)
VH: QVTLRESGPALVKPTQTLTLTCTFSGFSLSTAGMSVGWIRQPPGKALEWLADIWWDDKKHYNPSLKDRLTISKDTSKNQVVLKVTNMDPADTATYYCARDMIFNFYFDVWGQGTTVTVSS
VL: DIQMTQSPSTLSASVGDRVTITCSASSRVGYMHWYQQKPGKAPKLLIYDTSKLASGVPSRFSGSGSGTEFTLTISSLQPDDFATYYCFQGSGYPFTFGGGTKVEIK
Consider B4, for which the EC50 in test [1] was determined as 0.035 µg/mL; in test [2], 0.03 µg/mL. Moreover, in test [4], the “Neutralization … plaque-reduction assay” value worked out at 123 ng/mL.

B5: mAb 14N4 (antibody, V domains shown)
VH: QVQLVESGGGLIQPGGSLRLSCAVSGFTVSSKYMTWVRQAPGKGLEWVSVIYGGGSTYYADSVVGRFTISRDNSKNTLYLQMNSLRAEDTAVYYCASRLGVRATTGDLDYWGQGTLVTVSS
VL: QIVMTQSPSTLSASVGDRVTITCRASQSISSWLAWYQQKPGKAPKLLIYDASSLESGVPSRFSGSGSGTEFTLTISSLQPDDFATYYCQQYNTYSWWTFGQGTKVEIK
Take B5: the EC50 in test [1] is 0.057 µg/mL; in test [2] it was 0.078 µg/mL. The “Neutralization … plaque-reduction assay” value in test [3] came to 695 ng/mL.

B6: mAb 14C16 (antibody, V domains shown)
VH: QVQLGESGPALVKPTQTLTLTCTFSGFSLSTSEMCVSWIRQPPGKALEWLALIDWDGDKFFSTSLQSRLTISKSPSNNQVVLTMTNMDPVDSGTYFCARSTVRRSSGYYYYVLDVWGQGTLVTVSS
VL: QIVMTQSPSSLSASVGDRVTISCRASQSIGTYVNWYQHKPGKAPKVLISGASNLHSGVPSRFSGSGSGTDFTLTISSLQPEDFATYYCQQSYSPLTFGGGTTVEMK
As to B6, the values for the EC50 in test [1] and in test [2] were 0.02 µg/mL and 0.019 µg/mL, respectively. Further, in test [3], the “Neutralization … plaque-reduction assay” value is more than 100000 ng/mL.

B7: mAb 9J5 (antibody, V domains shown)
VH: QVQLVQSGAEVKKPGSSVTVSCKASGGSFTNYAFSWVRQAPGQGLEWMGGIIPLLNMPNYAQKFRGRVTISADQSTTTAYMELSRLTSEDTAIYFCARGGQVGDFIVLRHFDSWGQGTLVTVSS
VL: TLSCRASESVSNYLAWYQQKPGQTPRLLIYGASTRATGIPARFSGSGSGSEFTLTISSLQSEDFAVYYCQQYNDWPRFSFGQGTKLEIK
With B7, the EC50 in test [1] came to 0.04 µg/mL; in test [2], 0.03 µg/mL. In test [3], the “Neutralization … plaque-reduction assay” value was more than 100000 ng/mL.

B8: mAb 12I1 (antibody, V domains shown)
VH: QVQLVQSGGGVVQPGQSLRLSCAASGFSFSDYPIHWVRQAPGKGLEWVAGISYYGSNKFYADSVRGRFTISRDTSKNTFNLQMNSLKSEDTAVYYCARDGNPPRFLEYFDYWGQGTLVTVSS
VL: QPVVTQPRSVSGSPGQSVTISCTGSSSDVGGYNFVSWYRHHPGKAPKLLIYHVTKRPSGVPDRFSGSKSGNTASLTISGLQAEDEADYYCCSYAGSYTYVLFGGGTKLTVL
notes: Non-neutralizing, antigenic site VII
Regarding B8, the concentration giving a half-maximal response (EC50) in test [1] came to 0.033 µg/mL; in test [2], 0.026 µg/mL. Further, in test [3], the “Neutralization … plaque-reduction assay” value is more than 100000 ng/mL.

B9: mAb 13A8 (antibody, V domains shown)
VH: QVQLVESGGGVVQPGKSLRLSCAASGYIFSSYDMHWVRQAPGKGLEWVAVISFDGTTQHYADSVRGRFTVSRDNSQNTVFLQMNSLRPEDTAVYYCVKEYVIVSTFFDYWGQGTLVTVSS
VL: DIVMTQSPSSLSASVGDRVTITCRASQGIRNALGWYQHKPGKAPKVLIYAASRLQSGVPSRFSGSGSGTDFTLTISSLQPEDFATYYCLQDFNYPWTFGHGTKVEIK
On to B9, for which the EC50 in test [1] turned out to be 0.064 µg/mL; in test [2], 0.082 µg/mL. Besides, the “Neutralization … plaque-reduction assay” value in test [3] stood at 55 ng/mL.

B10: mAb 3J20 (antibody, V domains shown)
VH: EVQLVESGGGLVQPGGSLRLSCAASGFTFSSFTMNWVRQAPGKGLQWVSTISGSGGLTYYADSVKGRFTISRDNSKNTLSLQMNSLRAEDTAVYYCARDLEFTVTSYGGYYFEYWGQGTLVTVSS
VL: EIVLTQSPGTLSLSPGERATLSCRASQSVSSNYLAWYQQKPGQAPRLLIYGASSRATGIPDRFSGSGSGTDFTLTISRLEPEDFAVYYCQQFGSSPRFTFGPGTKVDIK
As to B10, the values for the EC50 in test [1] and in test [2] were 0.05 µg/mL and 0.084 µg/mL, respectively. In addition, the “Neutralization … plaque-reduction assay” value in test [3] was determined as 377 ng/mL.
